In patent US20230391881A1 (UNIVERSITY OF VIRGINIA PATENT FOUNDATION, published 2023):

What was measured:
[1] = molecular target: T1, Chi-G4S-DR5 (chimeric DR5: human DR5 extracellular domain, G4S linker, mouse DR5 transmembrane and … (chimeric: human DR5 ECD, mouse DR5 TM …)); test: flow cytometry on Chi-G4S-DR5 stable 4T1 cells (FIG. 15A)
T1 construct: Stably expressed on murine 4T1 cells; also called Chimeric human-mouse DR5 G4S

[2] = molecular target: T2, FOLR1 (UniProt P15328 25-234); test: immunoprecipitation, immunoblot with commercial FOLR1 antibody (FIG. 14C)
T2 construct: also called folate receptor alpha
T2 sequence (P15328 25-234 limits assumed): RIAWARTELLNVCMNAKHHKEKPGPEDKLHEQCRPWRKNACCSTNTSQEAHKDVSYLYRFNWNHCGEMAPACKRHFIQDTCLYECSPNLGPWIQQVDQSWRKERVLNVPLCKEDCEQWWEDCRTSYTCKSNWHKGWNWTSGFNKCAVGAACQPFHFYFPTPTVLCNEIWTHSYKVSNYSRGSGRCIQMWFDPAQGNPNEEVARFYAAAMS

B1: Tigatuzumab (antibody, human IgG1, kappa, L234A L235A, V domains shown)
VH: EVQLVESGGGLVQPGGSLRLSCAASGFTFSSYVMSWVRQAPGKGLEWVATISSGGSYTYYPDSVKGRFTISRDNAKNTLYLQMNSLRAEDTAVYYCARRGDSMITTDYWGQGTLVTVSS
VL: DIQMTQSPSSLSASVGDRVTITCKASQDVGTAVAWYQQKPGKAPKLLIYWASTRHTGVPSRFSGSGSGTDFTLTISSLQPEDFATYYCQQYSSYRTFGQGTKVEIKR
notes: also called clinical tigatuzumab antibody
[1]
  binding result: binds

B2: Farletuzumab (antibody, V domains shown)
VH: EVQLVESGGGVVQPGRSLRLSCSASGFTFSGYGLSWVRQAPGKGLEWVAMISSGGSYTYYADSVKGRFAISRDNAKNTLFLQMDSLRPEDTGVYFCARHGDDPAWFAYWGQGTPVTVSS
VL: DIQLTQSPSSLSASVGDRVTITCSVSSSISSNNLHWYQQKPGKAPKPWIYGTSNLASGVPSRFSGSGSGTDYTFTISSLQPEDIATYYCQQWSSYPYMYTFGQGTKVEIKR
notes: also called clinical anti-FOLR1, farletuzumab
[2]
  binding result: binds
